# From US20210403565A1 (BIOATLA, published 2021)
# T1: recombinant human CTLA4 extracellular domain (human, UniProt P16410 36-161)
# T1 construct: extracellular domain; also called huCTLA-4
# T1 sequence (looked up): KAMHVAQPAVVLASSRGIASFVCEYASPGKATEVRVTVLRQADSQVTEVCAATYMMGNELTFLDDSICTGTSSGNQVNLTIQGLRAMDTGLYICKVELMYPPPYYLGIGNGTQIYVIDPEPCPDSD
# T2: human CTLA4 expressed on the cell surface of CHO cells (human, UniProt P16410 36-223)
# T2 construct: whole, on cells; also called CHO-huCTLA4; huCTLA4
# T2 sequence (looked up): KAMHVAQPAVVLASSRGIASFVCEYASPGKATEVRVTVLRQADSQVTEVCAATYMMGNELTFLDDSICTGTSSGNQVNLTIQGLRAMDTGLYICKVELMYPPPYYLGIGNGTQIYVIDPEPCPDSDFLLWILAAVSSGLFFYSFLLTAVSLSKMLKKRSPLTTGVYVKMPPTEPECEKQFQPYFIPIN
# T3: cynomolgus CTLA4 expressed on the cell surface of CHO cells (cynomolgus, UniProt G7PL88 36-223)
# T3 construct: whole, on cells; also called CHO-cynoCTLA4
# T3 sequence: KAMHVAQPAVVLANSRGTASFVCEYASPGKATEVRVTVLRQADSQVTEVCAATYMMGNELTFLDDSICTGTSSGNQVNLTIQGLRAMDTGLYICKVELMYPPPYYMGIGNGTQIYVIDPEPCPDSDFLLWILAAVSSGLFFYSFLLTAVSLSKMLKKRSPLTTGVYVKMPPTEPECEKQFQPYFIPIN
# B1: BA-087-05-19 (antibody, V domains shown)
# VH: EVQLVESGGGLVQPGGSLRLSCAASGFTFSHYTMHWVRQAPGKGLEWVSFISYDGNNKYYADSVKGRFTISRDNSKNTLYLQMNSLRAEDTAVYYCARTGWLGPFDYWGQGTLVTVSS
# VL: AIQLTQSPSSLSASVGDRVTITCRASQYVGSSYLAWYLQKPGQSPQLLIYGAFSRATGIPARFSGSGSGTEFTLTISSLQSEDFAVYYCQQDGSSPWTFGQGTKVEIK
# notes: Detected with anti-human IgG and a molecular weight of 146 kDa was used in SPR, so it was tested as a whole IgG; also called BA-087-05-019; BA-087-05-19 (# 6972)
# B2: BA-087-08-32 (antibody, V domains shown)
# VH: EVQLVQSGAEVKKPGATVKISCKVSGFTFSHYTMHWIRQSPSRGLEWLGFISYDGNYKYYADSVKGRFTISRDNAKNSLYLQMNSLRAEDTAVYYCARTGWLGPFDYWGQGTLVTVSS
# VL: EIVMTQSPATLSVSPGERATLSCRASQSVGSSYLAWYQQKPGKAPKLLIYGAFSRATGVPSRFSGSGSGTDFTLTISSLQPEDFATYYCQQDGSSPWTFGQGTKVEIK
# notes: Detected with anti-human IgG and a molecular weight of 146 kDa was used in SPR, so it was tested as a whole IgG; also called BA-087-08-032; BA-087-08-32 (# 6978)
# Assays:
# [1] = target: T1, recombinant human CTLA4 extracellular …; assay: ELISA, wells coated with human CTLA4, assay pH 6.0; lot 6972 in His buffer, T0; unit from the axis Log[ng/mL]
# Experimental: (§1) Both ELISA and FACS analysis were used to measure the binding activity. […] The amount of bound antibodies was quantified using anti-human IgG antibody conjugated to HRP. The absorbance at 450 nm in each measurement was proportional to the amount of antibodies bound. […] EC50 value (in ng/mL) for binding to human CTLA4 was determined by absorbance at 450 nm against antibody concentration with Prism variable slope of four-parameter dose-response curve, which was calculated using the nonlinear fit (variable slope, four parameters) model built into GraphPad Prism software (version 7.03). The buffers tested included His buffer (His), Tris buffer (Tris), Glutamine buffer (Glu) and no buffer.
# [2] = target: T2, human CTLA4 expressed on the cell …; assay: FACS, cells expressing human CTLA4, assay pH 6.0, MFI; lot 6972 in Glu buffer, T2W; unit from the axis Log[ng/mL]
# Experimental: (§2) The amount of bound antibodies was quantified using anti-human IgG antibody conjugated to fluorophores. The MFI in each reaction was proportional to the amount of antibodies bound. The EC₅₀ value (in ng/mL) for binding to human CTLA4 on cells was determined by MFI of the singlets population against antibody concentration with a Prism variable slope of four-parameter dose-response curve, which was calculated using the nonlinear fit (variable slope, four parameters) model built into GraphPad Prism software (version 7.03).
# [3] = target: T2, human CTLA4 expressed on the cell …; assay: FACS, cells expressing human CTLA4, assay pH 7.4, MFI; lot 6972 in His buffer, T0; unit from the axis Log[ng/mL]
# Experimental: as §2
# [4] = target: T3, cynomolgus CTLA4 expressed on the cell …; assay: FACS saturation, CHO-cynoCTLA-4, pH 7.4, MFI, titration up to about log 6.5; reaches about 330000 against about 700000 for Ipi Analogue; no unit in the table, unit from the axis Log Antibodies [ng/ml]
# Experimental: (§3) The amount of antibodies bound on the cells was quantified using anti-human IgG antibody conjugated to fluorophores. EC₅₀ values at pH 6.0 and 7.4 for binding to cells were calculated using the nonlinear fit (variable slope, four parameters) model built into GraphPad Prism software (version 7.03). The expression levels of human CTLA4 or cynomolgus CTLA4 on the surface of the CHO cells were determined using a BD QuantiBRITE™ PE kit.
# (§4) Finally, saturations of the antibodies on the CHO cells expressing human or cynomolgus CTLA4 at pH 7.4 were also measured by FACS (FIGS. 8A-8B).
# [5] = target: T1, recombinant human CTLA4 extracellular …; assay: ELISA, wells coated with human CTLA4, assay pH 6.0; lot 6978 in Glu buffer, T2W; unit from the axis Log[ng/mL]
# Experimental: as §1
# [6] = target: T2, human CTLA4 expressed on the cell …; assay: FACS, cells expressing human CTLA4, assay pH 6.0, MFI; lot 6978 in Tris buffer, T0; unit from the axis Log[ng/mL]
# Experimental: as §2
# [7] = target: T1, recombinant human CTLA4 extracellular …; assay: ELISA, wells coated with human CTLA4, assay pH 6.0; lot 6978 in His buffer, T0; unit from the axis Log[ng/mL]
# Experimental: as §1
# [8] = target: T1, recombinant human CTLA4 extracellular …; assay: ELISA, wells coated with human CTLA4, assay pH 6.0; lot 6978 in His buffer, T2W; unit from the axis Log[ng/mL]
# Experimental: as §1
# [9] = target: T2, human CTLA4 expressed on the cell …; assay: FACS saturation, CHO-huCTLA-4, pH 7.4, MFI, titration up to about log 6.5, curve still rising at the end; no unit in the table, unit from the axis Log Antibodies [ng/ml]
# Experimental: as §3, §4
# [10] = target: T1, recombinant human CTLA4 extracellular …; assay: ELISA, wells coated with human CTLA4, assay pH 7.4; lot 6978 without test buffer; curve still rising at log 3 (OD450 about 0.2), no plateau; same column repeated in FIG. 9E and FIG. 9F; unit from the axis Log[ng/mL]
# Experimental: as §1
# [11] = target: T2, human CTLA4 expressed on the cell …; assay: FACS, cells expressing human CTLA4, assay pH 6.0, MFI; lot 6978 in His buffer, T2W; unit from the axis Log[ng/mL]
# Experimental: as §2
# [12] = target: T1, recombinant human CTLA4 extracellular …; assay: ELISA, wells coated with human CTLA4, assay pH 7.4; lot 6978 in Glu buffer, T2W; curve still rising at log 3 (OD450 at most about 0.3), no plateau; unit from the axis Log[ng/mL]
# Experimental: as §1
EC50 [1] [µg/mL],EC50 [2] [µg/mL],EC50 [3] [µg/mL],EC50 [4] [µg/mL],EC50 [5] [µg/mL],EC50 [6] [µg/mL],EC50 [7] [µg/mL],EC50 [8] [µg/mL],EC50 [9] [µg/mL],EC50 [10] [µg/mL],EC50 [11] [µg/mL],EC50 [12] [µg/mL],Binder
0.0154,0.267,0.433,13,,,,,,,,,B1
,,,,0.0123,0.152,0.038,0.0441,69.6,1.14,0.145,0.724,B2
